Here are results for three substances from paper PMC3958349.

For one assay, the target named is mCherry-GR (wild type) (UniProt P06537). Description: number and brightness (N&B) analysis; living 3617 cells transiently expressing mCherry, mCherryGRwt, GFP and/or GFP-p65; 300 nM Cort and/or 10 ng/ml TNF-α; nuclear brightness ε in the green and red channels.
Assay [1] concerns the target eGFP-GR (wild-type mouse glucocorticoid receptor with eGFP fused to its N-terminal end) (mouse) (UniProt P06537). Kind of assay: number and brightness (N&B) analysis; living BHK cells transiently transfected with pEGFP-GR or pEGFP-GR^A465T; 10 µM 21OH-6,19OP; nuclear brightness ε.
For assay [2] the target is unchanged. Description: number and brightness (N&B) analysis; living GR-null MEF cell lines stably expressing eGFP-GR or its mutants at endogenous levels; 100 nM Dex or 100 nM Cort; nuclear brightness ε.
For assay [3] the target is unchanged. Description: number and brightness (N&B) analysis; living BHK cells transiently transfected with pEGFP-GR or its mutants; 100 nM (0.1 µM) Dex or 100 nM Cort for at least 1 h; nuclear brightness ε relative to vehicle; ligand washout also tested (Cort withdrawal reduced the dimers, Dex washout did not).
In assay [4] the target is eGFP-GR^A465T (mouse) (UniProt P06537). Description: number and brightness (N&B) analysis; living GR-null MEF cell lines stably expressing eGFP-GR or its mutants at endogenous levels; 100 nM Dex or 100 nM Cort; nuclear brightness ε.
Assay [5] shares this target. Description: number and brightness (N&B) analysis; living 3617 cells (tetracycline to inhibit the stable GFP-GR) transiently transfected with pEGFP-GR or its mutants; 100 nM Dex or 100 nM Cort for at least 30 min; nuclear brightness ε.

mCherry-GR (wild type), sequence (P06537 whole entry): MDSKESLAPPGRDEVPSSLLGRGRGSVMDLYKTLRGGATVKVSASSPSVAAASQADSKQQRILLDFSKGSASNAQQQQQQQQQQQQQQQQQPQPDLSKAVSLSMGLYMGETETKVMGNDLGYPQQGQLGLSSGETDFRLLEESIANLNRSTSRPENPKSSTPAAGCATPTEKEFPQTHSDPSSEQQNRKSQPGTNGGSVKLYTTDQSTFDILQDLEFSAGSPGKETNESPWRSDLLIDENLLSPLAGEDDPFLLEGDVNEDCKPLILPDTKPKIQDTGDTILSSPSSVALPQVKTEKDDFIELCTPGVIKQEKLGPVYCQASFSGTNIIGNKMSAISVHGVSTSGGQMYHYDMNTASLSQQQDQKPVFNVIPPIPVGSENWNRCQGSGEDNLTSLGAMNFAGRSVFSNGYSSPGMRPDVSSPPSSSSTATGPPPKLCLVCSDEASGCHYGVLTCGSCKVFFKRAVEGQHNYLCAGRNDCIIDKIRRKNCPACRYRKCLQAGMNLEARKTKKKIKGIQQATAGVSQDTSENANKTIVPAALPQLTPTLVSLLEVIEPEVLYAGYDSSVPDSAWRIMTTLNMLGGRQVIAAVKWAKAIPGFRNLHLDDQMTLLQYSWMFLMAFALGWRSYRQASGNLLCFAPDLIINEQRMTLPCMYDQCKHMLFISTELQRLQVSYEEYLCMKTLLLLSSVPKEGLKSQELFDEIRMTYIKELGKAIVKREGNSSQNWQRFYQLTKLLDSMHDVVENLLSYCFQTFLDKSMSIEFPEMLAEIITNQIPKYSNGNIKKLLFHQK

In general, stoichiometry N refers to the number of molecules, sites or subunits per partner or assembly. Substance “mCherry-GR (wild type) (from UniProt P06537 1-792) (receptor)” showed a stoichiometry N in the assay with mCherry-GR (wild type) of 2.

With “eGFP-GR (wild-type mouse glucocorticoid receptor with eGFP fused to its N-terminal end) (from UniProt P06537 1-792)”, the stoichiometry N in assay [1], in assay [2] and in assay [3] was 2 each time.

Consider “eGFP-GR^A465T (from UniProt P06537 1-792) (receptor)”, for which the stoichiometry N in the assay with eGFP-GR^A465T (mouse) [4] and with eGFP-GR^A465T (mouse) [5] was 2 throughout.
